B1: K1-70/CD3 T-BsAb (anti-TSHR x anti-CD3 bispecific antibody, IgG-[L]-scFv 2+2 format) (bispecific antibody)
light: QSVLTQPPSVSAAPGQKVTISCSGSSSDIGSNYVSWYQQFPGTAPKLLIYDNNKRPSAIPDRFSGSKSGTSATLGITGLQTGDEADYYCGTWDSRLGIAVFGGGTQLTVLGQPKAAPSVTLFPPSSEELQANKATLVCLISDFYPGAVTVAWKADSSPVKAGVETTTPSKQSNNKYAASSYLSLTPEQWKSHRSYSCQVTHEGSTVEKTVAPTECTSGGGGSGGGGSGGGGSQVQLVQSGGGVVQPGRSLRLSCKASGYTFTRYTMHWVRQAPGKCLEWIGYINPSRGYTNYNQKFKDRFTISRDNSKNTAFLQMDSLRPEDTGVYFCARYYDDHYSLDYWGQGTPVTVSSGGGGSGGGGSGGGGSGGGGSGGGGSGGGGSDIQMTQSPSSLSASVGDRVTITCSASSSVSYMNWYQQTPGKAPKRWIYDTSKLASGVPSRFSGSGSGTDYTFTISSLQPEDIATYYCQQWSSNPFTFGCGTKLQITR
heavy: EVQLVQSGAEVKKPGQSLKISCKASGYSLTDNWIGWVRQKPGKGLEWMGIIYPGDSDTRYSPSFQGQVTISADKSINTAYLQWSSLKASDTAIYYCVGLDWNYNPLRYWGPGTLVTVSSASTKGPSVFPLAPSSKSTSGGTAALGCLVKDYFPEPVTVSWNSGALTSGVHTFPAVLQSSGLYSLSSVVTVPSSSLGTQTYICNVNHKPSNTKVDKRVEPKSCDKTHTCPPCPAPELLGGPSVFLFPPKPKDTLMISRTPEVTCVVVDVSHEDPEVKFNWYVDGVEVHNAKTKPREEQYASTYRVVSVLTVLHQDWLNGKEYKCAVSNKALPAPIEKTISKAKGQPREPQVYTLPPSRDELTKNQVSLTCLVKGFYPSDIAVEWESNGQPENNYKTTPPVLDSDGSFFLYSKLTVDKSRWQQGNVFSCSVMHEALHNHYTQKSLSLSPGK
notes: also called K1-70/CD3 BsAb; K1-70-TSHR/CD3
B2: M22/CD3 T-BsAb (anti-TSHR x anti-CD3 bispecific antibody, IgG-[L]-scFv 2+2 format) (bispecific antibody)
light: LTVLTQPPSVSGAPRQRVTISCSGNSSNIGNNAVNWYQQLPGKAPKLLIYYDDQLPSGVSDRFSGSRSGTSASLAIRGLQSEDEADYYCTSWDDSLDSQLFGGGTRLTVLGQPKAAPSVTLFPPSSEELQANKATLVCLISDFYPGAVTVAWKADSSPVKAGVETTTPSKQSNNKYAASSYLSLTPEQWKSHRSYSCQVTHEGSTVEKTVAPTECTSGGGGSGGGGSGGGGSQVQLVQSGGGVVQPGRSLRLSCKASGYTFTRYTMHWVRQAPGKCLEWIGYINPSRGYTNYNQKFKDRFTISRDNSKNTAFLQMDSLRPEDTGVYFCARYYDDHYSLDYWGQGTPVTVSSGGGGSGGGGSGGGGSGGGGSGGGGSGGGGSDIQMTQSPSSLSASVGDRVTITCSASSSVSYMNWYQQTPGKAPKRWIYDTSKLASGVPSRFSGSGSGTDYTFTISSLQPEDIATYYCQQWSSNPFTFGCGTKLQITR
heavy: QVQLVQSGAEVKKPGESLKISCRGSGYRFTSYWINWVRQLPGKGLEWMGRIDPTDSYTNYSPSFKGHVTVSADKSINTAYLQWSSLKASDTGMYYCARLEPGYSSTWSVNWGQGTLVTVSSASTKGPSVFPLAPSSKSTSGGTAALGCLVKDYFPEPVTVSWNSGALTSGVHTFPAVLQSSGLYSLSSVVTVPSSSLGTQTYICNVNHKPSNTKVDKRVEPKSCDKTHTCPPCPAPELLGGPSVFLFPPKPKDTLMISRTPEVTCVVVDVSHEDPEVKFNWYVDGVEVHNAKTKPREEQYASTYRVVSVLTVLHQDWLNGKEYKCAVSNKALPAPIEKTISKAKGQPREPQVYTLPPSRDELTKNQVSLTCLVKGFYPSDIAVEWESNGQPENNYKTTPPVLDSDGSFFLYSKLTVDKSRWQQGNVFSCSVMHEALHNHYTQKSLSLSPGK
notes: Expressed in Expi-CHO cells and purified on protein A; also called M22/CD3 BsAb; M22-TSHR/CD3

Molecular target: T1, human Thyroid Stimulating Hormone Receptor (TSHR), expressed on transfected or transduced cells (human, UniProt P16473 21-764)
T1 construct: also called Hu-TSHR; human TSHR
Experiment: flow cytometry on HEK-293T cells transfected with TSHR expression vectors
Procedure: Flow Cytometry. Flow cytometry was performed to assess specific binding of TSHR and HER2 bispecific antibodies or to quantify their membrane expression. […] For flow analysis cells were harvested using 0.02% EDTA in phosphate-buffered saline (PBS). […] After washing, cells were captured using a BD LSRFortessa (BD Biosciences). Cells stained with DAPI (1 μg/mL) were excluded. Cytometric analysis was performed using FlowJo (V10.6; FlowJo) to obtain median fluorescence intensity (MFI) or to quantify molecules per cell using QuantiBRITE PE reference beads (BD Biosciences).

Row | Binder | binding result
1 | B1 | binds
2 | B2 | binds

Source: patent publication US20240415888A1 (Memorial Sloan Kettering, published 2024)
